In patent US20150071918A1, “PEPTIDES FOR THE TREATMENT OF CANCER” (H. LEE MOFFITT CANCER CENTER AND RESEARCH INSTITUTE, INC., priority 2012, published 2015):
Blank lines part the entries; values can stand above or below the molecule they belong to. Where a SMILES comes first, the peptide text is derived from it. Where no end group is shown, it is not given here. [ ]: non-standard residue; d: D form. The star is where a group is joined. Biotin = O=C1N[C@H]2[C@H](CS[C@H]2CCCCC(=O)*)N1

Legend:
[1] = test system: peripheral blood mononuclear cells (PBMC); experiment: Cell death in normal peripheral blood mononuclear cells, annexin V positivity and FACS; assay type: cell-based, human; conditions: 6.25-50 ug/ml, six hours
Protocol: Peripheral blood mononuclear cells (PBMC) were isolated from a normal donor. Cells were treated with 6.25, 12.5, 25 and 50 ug/ml for six hours and cell death was measured by annexin V positivity and FACS analysis.
CD34^+ hematopoietic progenitor cells were isolated from peripheral blood and treated for 2 hrs with integrin interaction inhibitors (12.5 and 50 μg/ml) and then plated in a methylcellulose media supplemented with growth factors supporting myeloid and erythroid colonies. Colonies were counted on day 12 post-plating. […] In addition, we evaluated the toxicity of integrin interaction inhibitors in normal peripheral blood mononuclear cells (PBMC).

[2] = target: T1, full length recombinant human CD44 (Homo sapiens, UniProt P16070); experiment: ELISA based binding assay, biotin-HYD1 on NeutrAvidin coated wells; conditions: biotin as control
T1 construct: purchased Abnova
T1 sequence (P16070 21-699 isoform P16070-4 limits assumed): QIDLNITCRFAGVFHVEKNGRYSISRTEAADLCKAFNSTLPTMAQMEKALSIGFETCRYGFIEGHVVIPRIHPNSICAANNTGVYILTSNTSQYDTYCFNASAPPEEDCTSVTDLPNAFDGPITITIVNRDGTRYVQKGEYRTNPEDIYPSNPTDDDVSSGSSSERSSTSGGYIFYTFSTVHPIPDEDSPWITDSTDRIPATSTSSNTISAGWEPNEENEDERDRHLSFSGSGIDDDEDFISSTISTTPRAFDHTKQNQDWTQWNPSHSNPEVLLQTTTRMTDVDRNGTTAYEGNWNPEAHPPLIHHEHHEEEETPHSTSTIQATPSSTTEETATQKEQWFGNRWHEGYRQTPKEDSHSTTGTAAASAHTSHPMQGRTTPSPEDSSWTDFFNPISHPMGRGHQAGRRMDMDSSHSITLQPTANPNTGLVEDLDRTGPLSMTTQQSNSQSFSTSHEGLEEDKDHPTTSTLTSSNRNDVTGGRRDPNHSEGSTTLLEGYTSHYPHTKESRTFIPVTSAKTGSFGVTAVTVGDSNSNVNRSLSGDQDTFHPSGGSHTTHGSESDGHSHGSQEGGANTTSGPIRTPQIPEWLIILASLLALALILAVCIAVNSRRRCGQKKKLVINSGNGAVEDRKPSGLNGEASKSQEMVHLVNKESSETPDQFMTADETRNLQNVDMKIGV
Excerpt: FIG. 41. […] A primary CD44 antibody and HRP conjugated secondary antibody and chemiluminescence detection was used to quantify rCD44 binding to immobilized biotin-HYD1.
FIG. 51. ELISA based binding assay confirms that biotin-HYD1 binds to full length recombinant human CD44 in a concentration dependent manner. Biotin was bound to NeutrAvidin coated wells to control for non-specific binding.
The inventors used biotin-HYD1 as bait to pulldown binding complexes contained within membrane extracts of H929 MM cells. The pull down assay was directly coupled with an unbiased Mass-Spec analysis to identify HYD1 binding partners. […] NeutrAvidin beads were used to reduce non-specific binding. […] The inventors next determined whether α4 integrin could be detected by western blot analysis. […] To determine whether […] was indeed a direct binding partner of […] the inventors used recombinant CD44 and an ELISA as a readout of binding. […]
The inventors performed a total membrane binding assay with biotin conjugated HYD1 and NeutrAvidin beads on NCI-H929 and U266 MM cells. Samples were then loaded on an SDS-PAGE gel, trypsin digested, and analyzed by Liquid Chromatography-Mass Spectrometry/Mass Spectrometry (LC-MS/MS). […] For more quantitative binding affinity analysis we produced the human globular ectodomain of CD44 comprising of amino acids 20-178. […]

[3] = test system: CD44 and α4 integrin in membrane extracts; experiment: Pull-down of membrane extract with biotin-conjugated peptide on NeutrAvidin beads, western blot / LC-MS/MS; assay type: binding; conditions: H929 cells, 30 μg membrane extract, western blot pan-CD44 antibody
Protocol: FIG. 39. […] Thirty micrograms of membrane extract was incubated with either biotin or biotin-HYD1 bound NeutrAvidin beads. The first lane is 30 μg of membrane extract only. CD44 was detected by western blot analysis using a pan-CD44 antibody.
FIGS. 40A-40B. […] Biotin-HYD1 or biotin was immobilized to NeutraAvidin beads prior to incubation with 150 μg of membrane extract. The blot was initially probed for α4 integrin and subsequently stripped and re-probed with CD44 antibody.
FIG. 65. […] Total cell membranes were isolated from U937 or HL-60 cells. Membrane lysate (150 μg) was incubated with 500 μg of biotin or biotin-MTI-101 bound to NeutrAvidin beads. […]
The inventors used biotin-HYD1 as bait to pulldown binding complexes contained within membrane extracts of H929 MM cells. […] The inventors next determined whether α4 integrin could be detected by western blot analysis. […] To determine whether […] was indeed a direct binding partner of […] the inventors used recombinant CD44 and an ELISA as a readout of binding. […]
We performed a total membrane binding assay with biotin conjugated HYD1 and NeutrAvidin beads on NCI-H929 and U266 MM cells. Samples were then loaded on an SDS-PAGE gel and analyzed by LC-MS/MS. The adhesion receptor CD44 was determined to be among the adhesion receptors that had the most peptide match hits and was confirmed as a valid hit via Western Blot analysis. […]

H929 myeloma cells = assay type: cell-based, human; conditions: H929 cells
Protocol: H929 cells were treated for 24 hours with varying concentrations of peptide. Cell death was measured by Topro-3 staining and FACS analysis. The IC50 values were obtained from linear regression analysis and an average value was obtained from 3 independent experiments.
Table 4 legend: Structure activity relationship in H929 myeloma cells of cyclic INTEGRIN INTERACTION INHIBITORS derivatives. The minimal bioactive core sequence of INTEGRIN INTERACTION INHIBITORS WSVVM (SEQ ID NO:33) was cyclized using 2 novel reduced amide bond beta turn promoters and KLKLK (SEQ ID NO:34) as the non-recognition sequence. H929 cells were treated with varying concentrations of the indicated peptide for 24 h. Cell viability was determined using Topro-3 staining and FACS analysis after drug treatment. IC50 values were generated from linear regressions generated from the dose response curves (n=mean of 3 independent experiments).
A colony forming assay was used to compare induced cell death in H929 multiple myeloma cells. Cells were treated with integrin interaction inhibitors, shown in FIG. 5 and Table 4, and cell death was measured following 24 hour peptide treatment by TOPRO-3 staining and FACS analysis.

CD59 [4] = target: CD59 (UniProt P13987); experiment: LC-MS/MS of the biotin-HYD1 binding complex pulled down from NCI-H929 membranes (row CD59, column NCI-H929) [panel A.]
Sequence of CD59 (P13987 26-102 limits assumed): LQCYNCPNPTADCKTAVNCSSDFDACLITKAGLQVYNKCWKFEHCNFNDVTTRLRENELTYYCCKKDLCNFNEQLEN

[5] = target: CD44 (endogenous, of NCI-H929, U266, U937 and HL-60 cells) (human) (UniProt P16070); experiment: biotin-HYD1 NeutrAvidin pull-down of NCI-H929 membranes, LC-MS/MS
Sequence of CD44 (endogenous, of NCI-H929, U266, U937 and HL-60 cells) (human) (P16070 21-742 limits assumed): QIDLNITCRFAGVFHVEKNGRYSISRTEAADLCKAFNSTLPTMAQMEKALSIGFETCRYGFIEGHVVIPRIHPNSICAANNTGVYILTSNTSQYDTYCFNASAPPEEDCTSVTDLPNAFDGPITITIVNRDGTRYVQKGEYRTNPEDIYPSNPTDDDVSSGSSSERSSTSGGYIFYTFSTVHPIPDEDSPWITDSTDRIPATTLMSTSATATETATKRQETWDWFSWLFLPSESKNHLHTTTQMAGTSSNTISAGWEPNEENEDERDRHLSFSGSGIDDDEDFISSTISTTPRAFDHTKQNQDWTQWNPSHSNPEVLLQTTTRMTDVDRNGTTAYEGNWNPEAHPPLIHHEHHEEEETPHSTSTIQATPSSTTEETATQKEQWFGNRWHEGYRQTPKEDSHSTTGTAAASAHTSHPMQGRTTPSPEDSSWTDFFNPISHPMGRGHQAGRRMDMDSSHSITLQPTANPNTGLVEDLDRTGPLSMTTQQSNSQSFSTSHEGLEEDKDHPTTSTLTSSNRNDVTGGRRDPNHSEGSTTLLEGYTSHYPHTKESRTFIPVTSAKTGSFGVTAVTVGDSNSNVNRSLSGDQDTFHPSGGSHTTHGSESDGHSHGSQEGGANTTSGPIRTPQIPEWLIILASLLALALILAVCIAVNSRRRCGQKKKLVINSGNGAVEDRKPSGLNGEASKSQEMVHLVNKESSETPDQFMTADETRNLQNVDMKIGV

[6] = target: Neural cell adhesion molecule 1 (NCAM1) (Homo sapiens (Human)) (UniProt P13591); experiment: as above
Sequence of Neural cell adhesion molecule 1 (NCAM1) (Homo sapiens (Human)) (P13591 other isoform, or with tags, fused parts or gaps limits assumed): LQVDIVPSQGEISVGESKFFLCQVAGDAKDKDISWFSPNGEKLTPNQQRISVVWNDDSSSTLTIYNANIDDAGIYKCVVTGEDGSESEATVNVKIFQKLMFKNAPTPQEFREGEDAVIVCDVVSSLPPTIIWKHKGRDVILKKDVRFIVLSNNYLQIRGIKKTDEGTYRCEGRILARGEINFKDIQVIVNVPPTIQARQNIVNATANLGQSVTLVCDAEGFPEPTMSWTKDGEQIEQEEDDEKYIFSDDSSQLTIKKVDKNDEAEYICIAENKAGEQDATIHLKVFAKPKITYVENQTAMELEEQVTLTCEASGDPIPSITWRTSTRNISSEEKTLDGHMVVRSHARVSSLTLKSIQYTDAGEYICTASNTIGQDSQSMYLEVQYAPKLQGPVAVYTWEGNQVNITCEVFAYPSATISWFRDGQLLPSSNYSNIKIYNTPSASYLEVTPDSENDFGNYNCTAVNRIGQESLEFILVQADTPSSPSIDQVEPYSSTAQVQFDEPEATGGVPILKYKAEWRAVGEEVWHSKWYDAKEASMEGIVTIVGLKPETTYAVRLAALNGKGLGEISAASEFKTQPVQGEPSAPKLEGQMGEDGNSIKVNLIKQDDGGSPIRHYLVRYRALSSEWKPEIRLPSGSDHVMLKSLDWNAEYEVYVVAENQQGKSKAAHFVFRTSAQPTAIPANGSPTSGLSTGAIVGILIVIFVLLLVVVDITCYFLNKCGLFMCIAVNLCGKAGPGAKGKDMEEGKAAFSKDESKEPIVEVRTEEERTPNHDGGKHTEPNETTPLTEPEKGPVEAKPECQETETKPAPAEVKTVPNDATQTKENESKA

[7] = target: Syndecan-1 (Homo sapiens (Human)) (UniProt P18827); experiment: as above
Sequence of Syndecan-1 (Homo sapiens (Human)) (P18827 23-310 L136Q/G259V limits assumed): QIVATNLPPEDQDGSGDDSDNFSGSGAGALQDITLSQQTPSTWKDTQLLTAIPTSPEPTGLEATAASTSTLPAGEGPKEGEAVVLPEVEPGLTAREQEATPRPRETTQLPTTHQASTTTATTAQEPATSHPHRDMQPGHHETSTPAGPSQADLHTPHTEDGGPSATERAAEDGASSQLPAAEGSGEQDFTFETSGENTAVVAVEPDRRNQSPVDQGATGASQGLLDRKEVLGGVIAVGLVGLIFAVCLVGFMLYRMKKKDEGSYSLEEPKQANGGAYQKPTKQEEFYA

CD59 [8] = target: CD59 (UniProt P13987); experiment: as above
[9] = target: α4 integrin (Homo sapiens (Human)) (UniProt P13612); experiment: as above
[10] = target: Basigin (Homo sapiens (Human)) (UniProt P35613); experiment: as above
Sequence of Basigin (Homo sapiens (Human)) (P35613 other isoform, or with tags, fused parts or gaps limits assumed): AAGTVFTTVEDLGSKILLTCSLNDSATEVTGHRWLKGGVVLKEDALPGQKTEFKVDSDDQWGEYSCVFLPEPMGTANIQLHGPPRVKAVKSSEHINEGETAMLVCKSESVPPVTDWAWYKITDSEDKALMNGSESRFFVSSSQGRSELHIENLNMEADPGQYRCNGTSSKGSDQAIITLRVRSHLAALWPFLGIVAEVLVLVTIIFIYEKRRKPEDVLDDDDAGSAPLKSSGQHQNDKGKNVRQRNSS

β1 integrin = β1 integrin (UniProt P05556); experiment: as above
Sequence of β1 integrin (P05556 21-798): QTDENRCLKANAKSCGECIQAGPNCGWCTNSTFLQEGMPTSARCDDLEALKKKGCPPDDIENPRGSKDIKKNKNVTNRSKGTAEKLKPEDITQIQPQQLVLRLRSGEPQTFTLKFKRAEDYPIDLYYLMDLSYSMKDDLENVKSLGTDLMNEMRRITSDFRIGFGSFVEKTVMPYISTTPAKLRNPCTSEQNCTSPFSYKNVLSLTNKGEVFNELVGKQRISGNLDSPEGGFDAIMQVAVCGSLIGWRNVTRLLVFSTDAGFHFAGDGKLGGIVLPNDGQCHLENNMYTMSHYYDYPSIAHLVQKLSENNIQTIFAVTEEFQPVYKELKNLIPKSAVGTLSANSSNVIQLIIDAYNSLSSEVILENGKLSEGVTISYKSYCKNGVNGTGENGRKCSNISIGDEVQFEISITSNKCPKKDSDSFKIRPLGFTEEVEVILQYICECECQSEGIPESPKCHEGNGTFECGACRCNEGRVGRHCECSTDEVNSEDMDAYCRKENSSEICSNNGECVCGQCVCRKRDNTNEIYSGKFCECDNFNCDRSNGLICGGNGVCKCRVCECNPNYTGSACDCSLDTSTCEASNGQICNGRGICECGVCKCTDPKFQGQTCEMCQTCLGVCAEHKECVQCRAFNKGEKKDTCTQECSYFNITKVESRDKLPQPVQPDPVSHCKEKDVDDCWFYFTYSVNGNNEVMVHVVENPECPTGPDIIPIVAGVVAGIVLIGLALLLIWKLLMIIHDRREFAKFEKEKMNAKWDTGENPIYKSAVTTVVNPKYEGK

[11] = target: recombinant human CD44 ectodomain (amino acids 20-178, His-tagged, refolded from E. coli) (human) (UniProt P16070); experiment: SPR, Biacore T100, recombinant CD44 ectodomain over biotin-HYD1 sensor chip, 1:1 binding model
Sequence of recombinant human CD44 ectodomain (amino acids 20-178, His-tagged, refolded from E. coli) (human) (P16070 20-178): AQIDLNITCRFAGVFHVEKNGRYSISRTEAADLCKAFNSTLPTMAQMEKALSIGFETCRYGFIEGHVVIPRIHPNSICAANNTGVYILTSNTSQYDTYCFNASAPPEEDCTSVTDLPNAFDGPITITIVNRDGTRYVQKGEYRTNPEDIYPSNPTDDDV

[12] = target: CD44 (endogenous, of NCI-H929, U266, U937 and HL-60 cells) (human) (UniProt P16070); experiment: biotin-HYD1 NeutrAvidin pull-down of U266 membranes, LC-MS/MS
[13] = target: Syndecan-1 (Homo sapiens (Human)) (UniProt P18827); experiment: as above
[14] = target: Intercellular adhesion molecule 3 (ICAM3) (Homo sapiens (Human)) (UniProt P32942); experiment: as above
Sequence of Intercellular adhesion molecule 3 (ICAM3) (Homo sapiens (Human)) (P32942 30-547 limits assumed): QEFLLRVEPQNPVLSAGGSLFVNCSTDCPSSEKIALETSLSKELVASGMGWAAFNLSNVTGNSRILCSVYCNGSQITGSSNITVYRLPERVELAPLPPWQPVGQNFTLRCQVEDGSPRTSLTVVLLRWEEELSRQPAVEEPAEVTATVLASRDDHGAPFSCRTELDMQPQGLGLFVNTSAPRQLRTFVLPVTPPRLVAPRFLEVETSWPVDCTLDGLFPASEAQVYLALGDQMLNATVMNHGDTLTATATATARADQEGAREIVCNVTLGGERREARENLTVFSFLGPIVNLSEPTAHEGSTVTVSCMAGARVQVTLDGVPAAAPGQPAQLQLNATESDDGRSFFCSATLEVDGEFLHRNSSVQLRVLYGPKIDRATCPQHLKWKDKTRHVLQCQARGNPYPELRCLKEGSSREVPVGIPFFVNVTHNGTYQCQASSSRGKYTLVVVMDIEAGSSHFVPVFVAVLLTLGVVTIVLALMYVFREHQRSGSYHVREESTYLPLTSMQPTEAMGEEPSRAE

[15] = target: Intercellular adhesion molecule 1 (ICAM1) (Homo sapiens (Human)) (UniProt P05362); experiment: as above
Sequence of Intercellular adhesion molecule 1 (ICAM1) (Homo sapiens (Human)) (P05362 28-532 limits assumed): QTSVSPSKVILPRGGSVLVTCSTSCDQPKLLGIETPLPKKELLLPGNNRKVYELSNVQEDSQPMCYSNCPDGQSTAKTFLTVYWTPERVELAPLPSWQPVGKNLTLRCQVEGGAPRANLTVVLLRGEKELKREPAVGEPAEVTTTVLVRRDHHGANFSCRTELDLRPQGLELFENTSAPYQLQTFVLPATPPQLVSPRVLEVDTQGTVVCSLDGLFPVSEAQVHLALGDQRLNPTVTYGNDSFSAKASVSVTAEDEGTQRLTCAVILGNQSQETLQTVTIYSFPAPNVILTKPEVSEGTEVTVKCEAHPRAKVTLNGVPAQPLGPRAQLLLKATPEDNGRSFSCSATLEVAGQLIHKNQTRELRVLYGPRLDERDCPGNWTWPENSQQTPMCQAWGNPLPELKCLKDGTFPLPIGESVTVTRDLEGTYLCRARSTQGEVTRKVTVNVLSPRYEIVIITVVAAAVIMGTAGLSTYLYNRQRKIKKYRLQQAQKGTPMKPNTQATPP

CD59 [16] = target: CD59 (UniProt P13987); experiment: as above
[17] = target: Basigin (Homo sapiens (Human)) (UniProt P35613); experiment: as above
[18] = target: recombinant human CD44 ectodomain (amino acids 20-178, His-tagged, refolded from E. coli) (human) (UniProt P16070); experiment: SPR, recombinant CD44 ectodomain on biotin conjugated HYD1, two-state binding model

Molecule: CC[C@@H](C)[C@@H](NC(=O)[C@H](N)CCCCN)C(=O)N[C@H](CCCCN)C(=O)N[C@H](CCSC)C(=O)N[C@@H](C(=O)N[C@@H](C(=O)N[C@H](CO)C(=O)N[C@H](Cc1c[nH]c2ccccc12)C(=O)N[C@H](CCCCN)C(=O)NCC(=O)O)[C@H](C)CC)C(C)C [HYD1]
cell death in PBMC [1]: more potent in MM cells (H929) compared to normal hematopoietic cells

binding to recombinant CD44 in ELISA [2]: binds recombinant CD44 in a direct ELISA | IC50 of biotinylated peptide relative to HYD1 (H929 myeloma cells): slightly decreased
Molecule: CC[C@@H](C)[C@@H](NC(=O)[C@@H](CCCCN)NC(=O)CCCC[C@@H]1SC[C@@H]2NC(=O)N[C@@H]21)C(=O)N[C@H](CCCCN)C(=O)N[C@H](CCSC)C(=O)N[C@@H](C(=O)N[C@@H](C(=O)N[C@H](CO)C(=O)N[C@H](Cc1c[nH]c2ccccc12)C(=O)N[C@H](CCCCN)C(=O)NCC(=O)O)[C@H](C)CC)C(C)C [biotin-HYD1] (Biotin-[dK][dI][dK][dM][dV][dI][dS][dW][dK]G-OH; N-terminus and C-terminus assumed)
binding to recombinant CD44 in ELISA ([2]; listed as biotin conjugated HYD1): CD44 bound to biotin conjugated HYD1 in a concentration dependent manner | pull-down of binding partners from H929 membrane extract [3]: interacts with CD44 in H929 cells

# peptides identified (CD59 [4]): 3 peptides | Peptide match (peptide match hits) [5]: 7 | Peptide match (peptide match hits) [6]: 4 | Peptide match (peptide match hits) [7]: 5 | Peptide match (peptide match hits) (CD59 [8]): 2 | Peptide match (peptide match hits) [9]: 3 | Peptide match (peptide match hits) [10]: 7 | Peptide match (peptide match hits) (β1 integrin): 2 | Kd [11]: 26 nM | Peptide match (peptide match hits) [12]: 5 | Peptide match (peptide match hits) [13]: 6 | Peptide match (peptide match hits) [14]: 3 | Peptide match (peptide match hits) [15]: 6 | Peptide match (peptide match hits) (CD59 [16]): 2 | Peptide match (peptide match hits) [17]: 8 | Kd [18]: 24.4 nM
Molecule: [dK][dI][dK][dM][dV][dI][dS][dW][dK]G (also: biotin conjugated, site not given here) [biotin-HYD1 (biotin conjugated HYD1, all D-amino acid peptide kikmviswkg)]
